From US5726024

Legend:
p53 (wild type) = p53 (wild type) (UniProt P02340); assay: cell_activity
[1] = target: p53as (alternatively spliced p53) (Mus musculus) (UniProt P02340); assay: cell_activity
[2] = CAT reporter, human Saos-2 cells
[3] = luciferase reporter, mouse (10)1 cells

Substance	activity (p53 (wild type); [2]) [fold]	activity [1, 2] [fold]	activity (p53 (wild type); [3]) [fold]	activity [1, 3] [fold]
PG13 CAT reporter, 13 repeats of p53-binding site	14	9	–	–
WAF-1 promoter (WWP-1 luciferase)	–	–	15	14
